Results published in the supplement of paper PMC12636428.

System: Saccharomyces cerevisiae
Experiment: transcriptional activation domain activity (GFP:mCherry ratio, weighted mean of sorted bins, harmonized to initial dataset scale) (arbitrary fluorescence ratio units); higher = stronger transcriptional activation
Details: beta-estradiol 1 µM; induction time 4 h
Summary of the method: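 Activation activity, the read-weighted mean of bin median fluorescence averaged across barcodes, was linearly mapped onto the scale of the initial dataset. It was measured for barcoded protein tiles fused to an estradiol-inducible synthetic transcription factor at URA3 in GFP-reporter yeast diploids. Cultures diluted 1:5 into SC with 1 uM beta-estradiol were held 4 hours at 30 °C, sorted into 8 bins by GFP:mCherry ratio, and barcode-sequenced, and tiles under 50 reads were discarded.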

Sequence	transcriptional activation domain activity
GGGGGGAEGARGANESGGRGDGRRRGAGARARARQGGRGRGGGGRGGTKGGRG	9940
TRTLFMVPQLCCAFSSMWLYQILVAVSIYLTNHVGIMMVRVWSYCVAVYVLEV	69800
FCRCLTGTGKSRMGVPVVSRLLCHFQGLLLRVMAHLFEDRPGSVRWMTIELLK	28500
FFPLGFLMRFLLFDLSLSCFLSFPLFLFSLPTTFLLYYYFPPHTIIMSCGSPI	43500
KKLQNDILRPVDWIMYYYFASHIPITVLFDLQAIYPTNWVPQLLLDINAQYIN	37500
YHFALSYKRWINRVIIMIWCKLWWLRWCAFMQLFFRRNLRYNFWWRWIRVAGV	56700
SKDLTRLTLISIMLEKCEGDYSAACVEQYLTVLLKFAVLAVVSDQTLHLSILA	52000
PSNSLEDSIQQTVKARRKLSARPVLRVRIPNNNFSSNSAIPSEPSSASSTSAN	19300
RLYMLCTKIFLLLVGQRSEVGLTYASCITFMLCAAIPSESFVRNLVLLRVMLA	58400
MCRCFFWSFLVFFVFFSLLCLFVSFCVFLCFAFLCFVFFVFCFFCFFCLFCVF	56600
KRPRKKKQQKAAAEEAAEPAGSGDEAAAPPEPKKRRKGKLRKEGDKNGNAAPA	28500
GMIGFDPNVSLEKIYHGRFKDILHKGIQIADRTFTFLGFSHSSLRGHTCWFAA	75600
MGIIIVVCVFFLFDRFSFLSCFSSFSLELIRFFIFILLTFLSFCHSPFYLFFF	60900
TINLSLPPRDRYVLVATDYAHVLREMPCLYDEAVQHMKLPAGFFHLLGRILLR	58100
SVSRLHAKIEYEEENERFVLVVLGRNGAWVDGIWSGSGSRVPLGPRSQIQIAT	31600
KLLLVHGRWSYQRIADMHANFFYKNVIWTFGLFWYMPFNGFDATYLYHYTFIL	58100
YVGKYPESIDTFSIVPRTPTSRLIRSYLKTILANPESRKIFYFLMLNLAYMLV	58300
ALLFLNTLLELLESYHKSQYLAEILSRLQVDWRSLWSWLSVFIRSYANLKMGT	28300
LQLEMMEGIEDLDLEFDRMLDDFIIINFFIGNDFLPELPMLMVNDGAVPVILS	85100
GVPIWRLTGETWNWKEIVDRHPLTGKVVRRRSLKWGMACYRFWWVVWGCLFYI	59300
SSEYEIGRPSEEEVTMTRMLDKVLRRSDAVDKESLCILAGQRVWHLRLTLHCL	45500

Sequence	transcriptional activation domain activity
GVDDADHEEEEEEEEEEEQEGARYGALMGGLGVAQGAMRILAPAVAGGVYAVS	67300
MGLVYPCWLVFFGWFPSFLFLIFLSFIINFILVFSFLLFTFIPPLFSLLSVQF	37900
MSDATPTSARKAMAPRRSHRKSRLGCANCKRRRIKCDEQKPACSNCVKHDIRC	24400
GTDDAEAREKTGAADPSADPASRKRRADDGEGDARKRIRTEGGSASAAAASSS	14100
MWTQASVATLPTLPFTGISLSYFPCLFLLFSPDIFIFLFFLLFIYLFIFSFLL	55900
TRNSCVKIEKEDSLTNLNEIDFTNMFCNDNFIQNYNQGLMELLTEPTPGPSSS	64700
IGLCYVIILAIICFQRIYVQPYLYGIEAYMNREICLCWLVLLSLNLSTLQFNQ	74300
YQVYYYYQHFRNDAFGMQCLVYGASLINLLHSILLPKCVYFWVSTYWGNLSAL	60400
GASAFGSAAQLGQKSSPWGSATSAVPSTGGAVFGSSGFGNAAPSAAPAFGKPS	33200
MVEGDEKPARNGGPALQVIVLGSGGGPREDNTTAFLVRSVASGWKRGSVLAVD	55100
YDIVCQWWRNLVDRLKELPPLVRISLILELCQFVIPKMHIHSHTLLCQLLFSL	59100
ALYLWTRHVGFANFVKLYFVPFMCVNHWIVMLTYLHHCDPTIPYFRRTQWSFL	30800
MALIAFFLLFYLINLLYSLKLFLQYFFFTFTIPYLYIAYAFFFILYSLFLVFS	42900
SNPLTSQANRMSSYDKKTNVLGFDDGTFDNKVFNRTNFEEKAPFDIPLDEFFT	119000
LRWVLLPLCLFFSVCLEAHWPSISLAIVIIAYNELHMSSHWFLRGFCYAWGNA	36800
MGCFFCYCSIVLFRSSLYIISFFLLFFFLCFLFFYHIWVGVLFPSIFPLFYIR	65400
HWKLNLYFMLTNVIVVLPLYQVYIYLLGCHPKSPLYHHRVKLSVFAWSIWFYC	36200
SKWTTVDADDDLMRTFIRAYFLYEYDWFTFFHKDYFLDDMLAGSSTFCSPLLV	42000
KLFFNLSILTLCAIMTLSVVVAFLFVTGCDPFYGYRGILFGFRILLTDIFSNM	31400
SEESEGETGGKRKRKASSSSGRGEKGKKSKRGGGPEARTRKRKAAAETAETGE	23500
IELRARVFNYSNMHALKRCTFRLNRFETAFNFKLLWLFFVYYTRGIEVNRRNL	58600

Sequence	transcriptional activation domain activity
SLLPSPPQAVIFLVLFFSFLLLALFGYLFYFPLIPFLKTSIPIFSTYYSFFFM	24300
ADEEPTSSLYRSNAKEVSRITTGSCSEIKNKLAGMQLGHNKQVSICSSGLCVP	72000
EQQCICNYITSDPIWLIPLLGLLHRRLMYKVRLIYPFHISLANAFVTVCFHWL	80900
KREDIVRVVNGIFCCYILTFSLFFLFFLVYPSLCFLCLFPLCGVLSFFYLYFP	20900
RDSKTDVEAEVEAAEKDEKKGKKRKRAEVVAAEESAEARKGKSKKSSRKGKEV	34100
MFYYYFSPHFYCFMLPLYIFLFLISLFFIYPSKFYFLLIVMGVGFFSLHLCLP	51500
EYFYYKMLAPSAATVFYVYVGLIKMSIALFNIRLTTLTTKLWGNVNWAFFVIC	63000
AASETTAKKSRGRKRKTVPEPDCDDEDNTGAARCSQPRSRKRARTTAPAEPRE	12200
ARQGVGMMQSNVVFFFFFSFSFLFLFFFFSFSFLFLFFFPFSIIPTCSSLAVF	44800
MIIVLLVKVVVFNLMCKCLMVNVGRCFGEIVSCTFYFWKHILFYYLRSVVTRL	37700
SFVAYFSALWRGKQHRMTGYPIYDFFMGAELNPRMFGILDFKMFFEVRMPWYI	67400
PFLTTYPESYVHRAFEFGRVFDYRWTVNWRMIPEKTFVSTWFAHQLLLCHVIA	56500
VSRLHAKIEYEEEEERFVLVVIGRNGAWVDGVWSGASSRVPLGERSQIQIASR	65500
RWCARCMLLTATLHMGYFFSAWAPYDYIGYQLKNNKIVWKGLAAWCTLVWIVF	93300
IWVAPWNAGKILFFLIRYLVFVDTSVSIVYLAGGPLTLSRCHTLFGWFTASFT	74800
LVLYHDKFTTYLFAVFFFSLLPHVISSLFFFFFFFFWFLIKCIAMTPQFLFFF	34200
YFRAEAMKTFFSRNYWQLEVRLYVPTKRKGIFHGKDWRINVLLGMWWVVVHIA	55100
TSAFGGGNTGGGLFGQQNKPTTGFGSSPAPAGGLFGGGSGTTTSTPAFGAAAA	37300
PEQSSSNAVSDAADQLANVKLEDGTNAAASSAPRTRKPRARKPKRKAAAANAS	12100
MWWRADGHYLNPLSQIFFSCEFWFFLLLFQMGDGFAFFFFLSIGLVTSFFFFF	35400
VVVYCKSIDLLFRVALYLWRSPAVIAWISFAARQARVIVATVVFGLGINRADI	69400

Sequence	transcriptional activation domain activity
HRGVSVGIQFAPAGSSWYVEPHKCLIWKSFYFLMMYFMHMCVEYVLLLRVLAL	41200
EEGAATDGTADANGKPKKAPRKRKSQAGATTEDGQAPKRRKKKSTDAAGGAAA	31300
RRPRAAKPGTEQPKPETEKPGSEKRPGSEKRPRGRPRKAAAKPSTEKQPSNAK	21300
RLLVTTYRMFFILVVTLNLIALALVTVGHFPYADNHIGVILLGNLLCAVMIRN	29800
MEVCSVWISSLWFFVFSAFSVLGLWSLVFGIWSFRESGWYMGPGFFFFFFLIL	63100
TNLYDHAVTPEILLEQLAYVDNFIPSLDNEFSNVDWNVNTTHNNANNNGADTF	47300
DDKPAEKKEAAAAPKKEEAKKEEAKPAEKKEEPKKEAATAVPKATEKKPATAA	25900
EREKKKGREKEEKGGKERRGKKGRGKEEGKKRRKRGRKERKEGRKGEEGKRGR	33600
EPLFLEAQLIHMINFFETFFHKYETSIDRHNLIRHNALEKYYQGINCGRHMLC	95700
IFASALLVACFIHVKGVLDFSLYILKITCRADLDVDEWRSHFGMGEYVVYVGM	61400
NQLAEAHALALLHLEQRLNIAIELPIQKFILSHLPWLMPVLAKIYLSHIIVGV	57100
MSQFDFGLLFGQPFFLCSLVLFGLGWFITFIATCTIGSSPHLIWVEIFYNLFL	58500
MRLEVFCPLANATSHAYLIFCIMHCLYFIRHFFCCRSLSTFYSSRLLLLFHFI	80900
GSKMLTEFKKKLRLDYFMLLDLRLWKDMRMCLRKLFISTLIANLSYKRILGLR	61700
RMLFPNVQELHWEAQNFEKSPLLNMFMGLHLTEIYFTFSAGSYAQMTWIPIMY	33300
MCNLFSFSVQSISGNGVLYIFSFKVLYTFLPSPLLFLSFFSLLFYFFILSLFS	38400
YVVVVLTAMQVGLATETLAHNKAFVTISYGFSIFSIFIPIVFTLLLLLVFFFV	19400
GGGSAVWIFLYCVWYYFVKLQITGFLSSLLFFSYSLMACCVYGLLTGMVGFLT	60400
YYGWLPFGISSILVEIPYCMFFCASFMCGFYWTAGLVNHPVNCGYFYLMLMFF	69900
SDKLHRLRWRLGSLEDVLTTFSYLKFEQYLIPIVYLLLRRHTNIIFLAAHWVL	64000
